Measured values: PMC3299299, “Recombinant Expression and Characterization of Human and Murine ACE2: Species-Specific Activation of the Alternative Renin-Angiotensin-System” (International Journal of Hypertension, 2012)

Molecular target: T1, recombinant murine ACE2 (angiotensin-converting enzyme 2), extracellular domain (murine), Q8R0I0
T1 chain: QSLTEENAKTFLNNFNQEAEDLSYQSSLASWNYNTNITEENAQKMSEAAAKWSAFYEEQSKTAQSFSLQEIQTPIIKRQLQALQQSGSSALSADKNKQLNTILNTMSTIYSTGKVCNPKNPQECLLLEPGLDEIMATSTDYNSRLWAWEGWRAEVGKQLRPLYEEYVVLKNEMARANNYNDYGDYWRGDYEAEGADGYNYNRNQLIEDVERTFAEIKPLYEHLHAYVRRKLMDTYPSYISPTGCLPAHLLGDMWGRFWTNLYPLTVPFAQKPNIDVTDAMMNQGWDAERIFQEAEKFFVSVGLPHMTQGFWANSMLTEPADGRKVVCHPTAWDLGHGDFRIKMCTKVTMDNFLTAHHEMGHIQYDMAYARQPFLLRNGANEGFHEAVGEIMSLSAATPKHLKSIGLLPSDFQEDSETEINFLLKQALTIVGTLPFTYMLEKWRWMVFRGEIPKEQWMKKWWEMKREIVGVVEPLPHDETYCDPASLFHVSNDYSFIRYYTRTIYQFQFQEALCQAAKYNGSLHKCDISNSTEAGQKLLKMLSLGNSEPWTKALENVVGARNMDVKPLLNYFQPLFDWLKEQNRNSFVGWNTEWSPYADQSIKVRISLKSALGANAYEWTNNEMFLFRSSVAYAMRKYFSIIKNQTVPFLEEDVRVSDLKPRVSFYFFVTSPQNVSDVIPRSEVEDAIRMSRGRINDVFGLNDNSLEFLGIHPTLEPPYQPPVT
Assay: native gel or EMSA; native PAGE, 2 ug protein on a precast native 3-12% gradient gel, Bis/Tris-Tricine buffers, 150 V for 80 min, Coomassie stain; single band at approximately 170 kDa; monomer to dimer
Conditions: remark: other sources report otherwise

B1: recombinant murine ACE2 (angiotensin-converting enzyme 2), extracellular domain, Q8R0I0 18-740 (enzyme)
chain: T1 chain
Question: How did the stoichiometry N turn out when B1 was run?
Answer: 2
